Experimental data reported in PMC3186816 (Molecular & Cellular Proteomics : MCP, 2011).
“And” between values parts separate entries of the source, which are not always exact repeats. Equal entries are not always repeated. Where two headings read alike, the source gives them in different places.

Legend:
[1] = molecular target: phage p2 ORF15 (as in the sample SBP1) (Lactococcus phage p2) (UniProt D3WAD3); experiment: native MS
[2] = molecular target: phage p2 baseplate subcomplex SBP1 [6xORF15 + 3xORF16] (Lactococcus phage p2) (UniProt D3WAD3); experiment: native MS
[3] = molecular target: phage TP901-1 ORF48 (BppU), as in the samples TP1 and Dit-BppU (Lactococcus phage TP901-1); experiment: native MS
[4] = molecular target: phage TP901-1 ORF48 (BppU), as in the samples TP1 and Dit-BppU (Lactococcus phage TP901-1); experiment: native MS; remark: listed apart in the source
[5] = molecular target: phage p2 ORF16 (Lactococcus phage p2); experiment: native MS
[6] = molecular target: phage p2 ORF16 (Lactococcus phage p2); experiment: native MS; remark: listed apart in the source
[7] = molecular target: phage TP901-1 ORF49 (BppL, the RBP), as in the sample TP1 (Lactococcus phage TP901-1); experiment: native MS
[8] = molecular target: phage TP901-1 ORF48 (BppU), as in the Tripod sample (Lactococcus phage TP901-1); experiment: native MS
[9] = molecular target: phage TP901-1 ORF46 (Dit) (Lactococcus phage TP901-1); experiment: native MS
[10] = molecular target: phage TP901-1 ORF46 (Dit) (Lactococcus phage TP901-1); experiment: denaturing ESI-MS
[11] = molecular target: phage TP901-1 ORF46 (Dit) (Lactococcus phage TP901-1); experiment: native MS; remark: listed apart in the source
[12] = molecular target: phage TP901-1 ORF46 (Dit) (Lactococcus phage TP901-1); experiment: SEC-MALS
[13] = molecular target: Tal-N (TP901-1 ORF47 N-terminal region, residues 1-386) (Lactococcus phage TP901-1); experiment: native MS
[14] = molecular target: Tal-N (TP901-1 ORF47 N-terminal region, residues 1-386) (Lactococcus phage TP901-1); experiment: denaturing ESI-MS
[15] = molecular target: phage TP901-1 ORF49 (BppL), as in the Tripod sample (Lactococcus phage TP901-1); experiment: native MS
[16] = molecular target: T1, phage p2 baseplate [6xORF15 + 3xORF16 + 18xORF18] (Lactococcus phage p2); experiment: native MS
T1 chain 1: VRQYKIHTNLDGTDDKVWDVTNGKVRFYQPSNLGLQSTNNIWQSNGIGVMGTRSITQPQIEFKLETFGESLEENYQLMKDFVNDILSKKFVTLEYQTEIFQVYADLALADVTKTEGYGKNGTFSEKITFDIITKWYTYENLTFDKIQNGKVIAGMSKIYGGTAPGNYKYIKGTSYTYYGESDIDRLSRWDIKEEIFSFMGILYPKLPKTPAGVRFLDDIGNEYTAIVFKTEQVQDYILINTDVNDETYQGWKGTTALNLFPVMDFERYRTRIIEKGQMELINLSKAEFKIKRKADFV
T1 chain 2: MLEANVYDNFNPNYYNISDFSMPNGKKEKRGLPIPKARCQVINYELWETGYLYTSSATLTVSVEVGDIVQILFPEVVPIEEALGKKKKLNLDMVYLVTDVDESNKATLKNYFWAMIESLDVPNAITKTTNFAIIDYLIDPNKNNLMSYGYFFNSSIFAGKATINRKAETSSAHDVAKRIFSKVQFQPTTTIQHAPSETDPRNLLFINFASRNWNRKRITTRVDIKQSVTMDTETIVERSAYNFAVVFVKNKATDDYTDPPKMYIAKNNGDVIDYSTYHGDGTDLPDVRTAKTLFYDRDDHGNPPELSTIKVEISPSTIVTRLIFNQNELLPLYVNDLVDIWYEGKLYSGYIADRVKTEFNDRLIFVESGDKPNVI
T1 chain 3: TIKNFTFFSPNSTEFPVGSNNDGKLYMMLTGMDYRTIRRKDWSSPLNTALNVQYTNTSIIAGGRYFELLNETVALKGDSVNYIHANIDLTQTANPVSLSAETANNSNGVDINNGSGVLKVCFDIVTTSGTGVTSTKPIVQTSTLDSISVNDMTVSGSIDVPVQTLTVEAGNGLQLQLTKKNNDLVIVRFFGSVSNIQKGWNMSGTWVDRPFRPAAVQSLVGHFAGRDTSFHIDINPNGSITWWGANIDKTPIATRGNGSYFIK

native MS [17] = molecular target: the molecule itself; experiment: native MS
native MS [18] = molecular target: the molecule itself; experiment: native MS; remark: listed apart in the source
denaturing ESI-MS = molecular target: the molecule itself; experiment: denaturing ESI-MS
native MS [19] = molecular target: the molecule itself; experiment: native MS; remark: listed apart in the source

Q: For “phage p2 ORF15 (as in the sample SBP1) (from UniProt D3WAD3 2-298) (natural protein)”, which stoichiometry N [1] is on record?
A: 6

Q: With “phage p2 baseplate subcomplex SBP1 [6xORF15 + 3xORF16] (from UniProt D3WAD3 2-298)” as the molecule, how does the stoichiometry N [2] read?
A: 2

Q: Which results are given for “phage TP901-1 ORF48 (BppU), as in the samples TP1 and Dit-BppU (natural protein)”?
A: stoichiometry N [3]: 3; stoichiometry N [4]: 3

Q: phage p2 ORF16 (natural protein) was tested. Which stoichiometry N [5] did it give?
A: 2 and 3

Q: And the stoichiometry N [6]?
A: 3

Q: Which stoichiometry N [7] does the source give for “phage TP901-1 ORF49 (BppL, the RBP), as in the sample TP1 (natural protein)” here?
A: 3 and 6

Q: With “phage TP901-1 ORF48 (BppU), as in the Tripod sample (natural protein)” as the molecule, how does the stoichiometry N [8] read?
A: 3

Q: For “phage TP901-1 ORF46 (Dit) (natural protein)”, which stoichiometry N [9] is on record?
A: 6

Q: And the stoichiometry N [10]?
A: 2 and 3 and 6

Q: What about the stoichiometry N [11] of the same molecule?
A: 6 and 12

Q: What about the stoichiometry N [12] of the same molecule?
A: 12

Q: Which stoichiometry N [13] does the source give for “Tal-N (TP901-1 ORF47 N-terminal region, residues 1-386) (domain or fragment)” here?
A: 2 and 3

Q: And the stoichiometry N [14]?
A: 2 and 3

Q: How did the stoichiometry N [15] turn out when “phage TP901-1 ORF49 (BppL), as in the Tripod sample (natural protein)” was run?
A: 3

B1: VHH5 neutralizing llama antibody fragment (VHH)
VHH: QVQLQESGGGLVQAGGSLRLSCTASRRTGSNWCMGWFRQLAGKEPELVVALNFDYDMTYYADSVKGRFTVSRDSGKNTVYLQMNSLKPEDTAIYYCAARSGGFSSNRELYDGWGQGTQVTVSS
Q: Which “stoichiometry N” value [16] does the source give for B1 here?
A: 18

B2: phage p2 ORF15 (as in the samples BP1, BP2 and SBP2) (natural protein, Lactococcus phage p2)
chain: VRQYKIHTNLDGTDDKVWDVTNGKVRFYQPSNLGLQSTNNIWQSNGIGVMGTRSITQPQIEFKLETFGESLEENYQLMKDFVNDILSKKFVTLEYQTEIFQVYADLALADVTKTEGYGKNGTFSEKITFDIITKWYTYENLTFDKIQNGKVIAGMSKIYGGTAPGNYKYIKGTSYTYYGESDIDRLSRWDIKEEIFSFMGILYPKLPKTPAGVRFLDDIGNEYTAIVFKTEQVQDYILINTDVNDETYQGWKGTTALNLFPVMDFERYRTRIIEKGQMELINLSKAEFKIKRKADFV
Q: For B2, which “stoichiometry N” value (native MS [17]) is on record?
A: 6

B3: phage p2 ORF18 (receptor-binding protein) (natural protein, Lactococcus phage p2)
chain: TIKNFTFFSPNSTEFPVGSNNDGKLYMMLTGMDYRTIRRKDWSSPLNTALNVQYTNTSIIAGGRYFELLNETVALKGDSVNYIHANIDLTQTANPVSLSAETANNSNGVDINNGSGVLKVCFDIVTTSGTGVTSTKPIVQTSTLDSISVNDMTVSGSIDVPVQTLTVEAGNGLQLQLTKKNNDLVIVRFFGSVSNIQKGWNMSGTWVDRPFRPAAVQSLVGHFAGRDTSFHIDINPNGSITWWGANIDKTPIATRGNGSYFIK
Q: B3 was tested. Which “stoichiometry N” value (native MS [18]) did it give?
A: 3

Q: What about the “stoichiometry N” value (denaturing ESI-MS) of the same molecule?
A: 2

Q: What about the “stoichiometry N” value (native MS [19]) of the same molecule?
A: 3
